We go through 1 substance from PMC5775349.

Test [1] concerns the target 40S ribosomes of cells with WT uS7 (S. cerevisiae | S. cerevisiae (endogenous in yeast cells)) (UniProt P26783). Description: co-sedimentation; yeast lysate in TSM buffer (10 mM Tris-HCl pH7.4, 100 mM NaCl, 30 mM MgCl2), 10-40% sucrose gradient ultracentrifugation; fractions blotted with anti-HA and anti-Rio2; densitometry, duplicate experiments.
For test [2], the target named is 40S ribosomes of S223A cells (S. cerevisiae | S. cerevisiae (endogenous in yeast cells)) (UniProt P26783). Described as above.

Take “Rio2, endogenous (from UniProt P40160 1-425) (natural protein)”: the percent of Rio2 in the 40S fraction in test [1] amounted to 41%; in test [2], 28%.
